Measured values as given in a protein production outcome set (Wang et al. 2014).

Test: label from the status in PepcDB records
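Further: failed if final PepcDB status was selected cloned or expressed and not failed if soluble or beyond.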

## MKLIRLIASPILMYVLAGVYALVLAIATFVENSSGPAVAREYFYYAPWFILLQLLQAVNLLAMFLQGGYFKRISKGSLIFHGALVFIWLGAAVTHYAGVTGIMHIREGETVDRMMRDEGAGMGNASLPFSVTLDDFRLKRYPGSHSPMSYESDLVIKKENEAPLQATVRMNKVIEVDGYRLFQSSFDPDEQGTVLSVSYDRPGMQITYIGYFLLFAGFVLTLFSKKSRFGRLRRELGEMKKNAPFCLLLFLGLSGALGTQASYAQETLSSSQLPCIPAPHARKFGSLVLLNPNGRLEPVNSYTSAILRKLYGADKLNSINSDQFFLNLLAFPDEWGGYPFIKVDNKDILQRFGRDGKYIAWQDVFDADGNYVLTDEVNAIYAKSASERKRMDSDLLKLDESVNIVYRIMQHQLLPLFPDENDVQGKWYSAGDEQTVFHDKDSLFVSKIMDWYIYELGNGVRTNNWKEADKIVDMMHIFQQAKSKTPAIDNQRVKAELLYNQLNLFFWCRLAYLILGGILLFIACGEIIADFKWGSRLSSILIVLLIAAFLAHTTGVLLRWYISERAPWANAYESMICTSWLLVGGGLLFARRFRILPALAGLLGGIMLFVAGLNHLNPEITPLVPVLQSYWLMSHVAIIMIGYVFFALCALTGLFNLILMNLLSATNRVKLLFRIREFTLLNEMAMILGLFFMTAGTFLGAIWANVSWGRYWGWDPKETWALISIVVYALVLHIRFIPLLKGKTTWCYNLLSVVSILSIIMTWFGVNYYLSGLHSYGKTEGGDLLLWIWGAGLCVVLALALFARRRLKKYS
  protein production: failed

## MVSPKKLTPAMEQVKTFKEKYPDCILFMRMGDFYETFFEDAEICARELDIVQTSRSKDPEGNPIPLAGIPYHAVDLYLPRMIRKGYKVAVCEQVEDPKLAKGVVKRDVVRVVTPGTAIDADVIPGPTARYLMALCSDAKKTVMGLAFLDISTGEFFVREIPFEPGFSALATEIEQYNPLEILVPQGISADLISFLASTCKVLTPGRSGLFVDGTAELTAAFCVSSLDGFDVSSAECINAAAAALRYAKETQKTSLPHIRGFSRKYANDAMILDAITLRNLEILNPLRGDRNDTTLFGFLNRTKTPMGSRVLRSTITRPLTSPEKINHRLDAVGFFTRRPVLLSGTRTILSRFTDIERIAGRIAYGNASPRDLLALASSLAAVPELTAELCGAEGLLKDELEQIPSFDGVADLILSAIVDEPPLVYKNGGVIREGYSSDLDQIRNIVTNGRDWIAELQQTERERTGIRSLKIAYNNVFGYYIEITKANLHLVPDTYERKQTTANGERFTIPALREREAVMAQADDRVLALEISLFESLLTHLSEFVPALQQASRSIGTIDMIAAFADLSLSGNYVRPELVPGTELLIRDGRHPIVENTVPGGYVPNDTEMSSIGQQILILTGANMAGKSTYMRSVALICIMAQTGCFVPASFARIGIVDRVFTRVGASDDLAGGQSTFMVEMLELANILNNATDQSLILLDEIGRGTSTVDGYAIARAVLEYLHGKGGAGPRTLFATHFHQLIGMESELRRVRNYHFAVKEDQHDITFLRKLIPGATDRSYGIHVAKIAGVPKKVLVRASDLLREALTQDASSGGTKYYTQMLLTDAEPAPSAVEERIRDADPNMMTPMQALMFINELKALLEKK
  protein production: failed

## MAEFTHLVNERRSASNFLSGHPITKEDLNEMFELVALAPSAFNLQHTKYVTVLDQDVKEKLKQAANGQYKVVSSSAVLLVLGDKQAYQQAADIYEGLKVLGILNKQEYDHMVQDTVSFYENRGEQFKRDEAIRNASLSAMMFMLSAAAAGWDTCPMIGFDAEAVKRILNIDDQFEVVMMITIGKEKTESRRPRGYRKPVNEFVEYM
  protein production: not failed

## MANLFSFLFLGTLGWGMSLYLMKILLVSLTPTEIVLYRMAIGAASLFILAKLFKLKTDNIRGLILDGIIVGTFNMTLPFYLTTYAVKTVSSSLASVINGLTPLCTLILGMVFFSSKQKLGVLNLLSIVLGFIGIIIINSDVSIYQGSAVEFIALLATTISYGVTANYFKYHARTKEPILVSAVSAFVSAITMLIFKCATESSINSWGIPQGMNQIIALLWLGIIGSGFCLYLYCSLIQNAGAVFASMITYLMTITGVIMGMIFLHETISHQVMIGCIFIFFSLILVNHAPLLEKILVSISRQISLKSARRYELNQ
  protein production: failed

## MEDPLGRLEWIKFLSAFYDKEDKAENYFNQQVSKVMATENKVSSLKKPKVAFGMVDNGKVYIPAKNSYAAKMVDMAGGDYIFKDLNNKSGYITLEDFYSKSKDADVLIYSSSKEYTPSLKSMLSAAPILKTIKPVKNKKVWCFGKDYYQAIDKTDEIIEDLASIFHPESFKGLEHHHHHH
  protein production: failed

## MTPRRHDNDYERRKWRQVAGHFGMGAAFGALFAGIVLFNNYFGLSSVIATSEAPTLVRIIFVVGVAGSFAFMAAITGFLFLVHED
  protein production: failed

## MIQSSLYRALNKGFDYQILACKDFKESELAKEVISYFKPNTKAILFPEFRAKKNDDLRSFFEEFLQLLGGLREFYQALENKQETIIIAPISALLHPLPKKELLESFKITLLEKYNLKDLKDKLFYYGYEILDLVEVEGEASFRGDIVDIYAPNSKAYRLSFFDTECESIKEFDPITQMSLKEDLLEIEIPPTLFSLDESSYKDLKTKVEQSPLNSFSKDLTSFGLWFLGEKAQDLLIVYKSIISPRALEEIQELASLNELDCERFKFLKVLENAQGYEDLEIHAHALEGFIALHSNHKITLLAPNKTILDNAISALDAGNMECVIAPFVLNFKTPDGIFISLNSFERKKKRQKSKLALNELNPGEWVVHDDYGVGVFSQLVQHSVLGSKRDFLEIAYLGEDKLLLPVENLHLIARYVAQSDSVPAKDRLGKGSFLKLKAKVRTKLLEIASKIIELAAERNLILGKKMDVHLAELEVFKSHAGFEYTSDQEKAIAEISKDLSSHRVMDRLLSGDVGFGKTEVAMHAIFCAFLNGFQSALVVPTTLLAHQHFETLRARFENFGVKVARLDRYASEKNKLLKAVELGQVDALIGTHAILGAKFKNLGLVVVDEEHKFGVKQKEALKELSKSVHFLSMSATPIPRTLNMALSQIKGISSLKTPPTDRKPSRTFLKEKNDELLKEIIYRELRRNGQIFYIHNHIASILKVKTKLEDLIPKLKIAILHSQINANESEEIMLEFAKGNYQVLLCTSIVESGIHLPNANTIIIDNAQNFGLADLHQLRGRVGRGKKEGFCYFLIEDQKSLNEQALKRLLALEKNSYLGSGESVAYHDLEIRGGGNLLGQDQSGHIKNIGYALYTRMLEDAIYELSGGKKRLEKSVEIQLGVSAFLNPELIASDSLRLDLYRRLSLCENTDEVGQIHEEIEDRFGKIDDLSAQFLQIITLKILANQLGIIKLSNFNQNITITYSDEKKESLKAPSKDDNDILETLLKHLRAQISLKRR
  protein production: failed

## SDSRPAVLDLIGNTPLVRVTRFDTGPCTLYLKLESQNPGGSIKDRIGVAMIEAAERDGRLRPGGTIVEATAGNTGLGLALVGRAKGYRVVLVVPDKMSTEKVLHLRAMGAEVHITRSDVGKGHPEYYQDVAARLAQDIPGAFFADQFNNPANPLAHECGTGPELWAQTGHDLDAIVVGVGSSGTLTGLTRFFQKVQPELEMVLADPEGSIMAEYSRSGTLGTPGSWAVEGIGEDFVPAIADLSSVRHAYSISDEESFAMARELLRVEGIPGGSSTGTLLAAALRFCREQKEPKRVVSFVCDTGTRYLSKIYNDQWMTDQGLLQRKHYGDLRDIIARRFEEGRVISVGPDDTLLTAFQRMRLADVSQLPVLDDGKLVGVIDESDILLGVHADAPRFRDAVSSAMNAAPETLAPGASLAQLQAVLDRGLVAIVADASGFHGLITRFDLL
  protein production: failed

## MTLTMGFIGFGKSANRYHLPYLKTRNNIKVKTIFVRQINEELAAPYEERGVYFTTDLDELLNDKEIQVVTICTPAHTHYELAKKVILAGKSVIVEKPFCDTVEHAKELLALGREKGVVVMPYQNRRFDGDFLAVKQVVEQGFLGDIIEIESHIDYFRPGSITHEAPKEEGSFYSLGIHTMDRMISLFGRPNTVTYDIRNNEVEGAVDNYFDVGLHYGNQLKIKLKTNHIVAKDYPRFIVHGTNGSFIKYGEDQQENDLKAGIMPESAGFGEDSPMYYGIAKYRNANGDWIEKQIKTPLGDYGRFYDAAYDTIVNGAPKLVKDEEAVTNIEILENGFAAPSPSVYKLEALHLNELEHHHHHH
  protein production: not failed

## MNLYADYEYYTSTYKGNLAKEEFEKSIMKASAYVRRITFGRADDNMEMEEVKLAACSVCDLIANDEKVRSKHSGRAVTSENTDGYSVSYESGGNGETADDLLKRNIFDTLLLYLEPTRLLYMGVELLEHHHHHH
  protein production: not failed

## KRKTKEQLAILKSFFLQCQWARREDYQKLEQITGLPRPEIIQWFGDTRYALKHGQLKWFRDNA
  protein production: not failed

## MPAKPIDLGPLHFAKRGDAVAYLNDMLHRYDVGDRVGANDTVILRAALEHHPDAEAKKGCGITHFNVRTADFGTKCFWLNRTDGTTEKFSHRACIYGT
  protein production: failed

## MIALHTLLCADTPDDTPVCFDETTTMTRGMFRAHVAACIAAWSDRCANRYALCIDDPFAFACALFALLASGKAVVIPASSAPAYLASIADAYDSALTDGDMEGIISQAAQPPGAALLRPIAPHAPITLYTSGSSAAPKAIHKTLAQFDAEVRTLEDHWGEWIGPGAILASVPHHHIYGLLFRIFWPLASGRAFGRRTYAEPHALQTALTRRETAAIVSSPAQLARWPSLPGFDTLSPLPAAVFSSGGPLDEAAAATFASAHGTAPTEIYGSTETGGIAWRRRNESDAWQAFANVAVRREADGALSVRSPHLGHPDWHRTDDAAEFDDAGRFRLRGRMDRIVKLDGKRVSLPEIENWLGLHPYVAQSAAVLLPGASRERLGVLSALTSAGVEALRQHGRIGLAKTLRRHLAAYVAPTLIPRKWRFRMSLPVDARGKLPASAVAASFAAGRKGFEMLSHVRDAEGDHYELRVPPELVHFRGHFPGLPILPGVVLVDWIACLAAELADSTRSIRSIDQLKFMAPVPPAALVSVQLTHEPQRCRVRFRARLGTRECASGALVYREAD
  protein production: failed

## KLAYRHLIQPESAVRKLMILVNGRAENMLKWSELAYDFYHQGYDVLLFDHRGQGYSQRIIPQKGHLDEFRFYVDDMAKIIEKVTALFSYSTQHLLAHSMGALIATYYLANYDHHINKAVLSSPFYGILLKHPIRDELIITLMNILGQGERYVFGKGAYQQAHLEYNELTFCKTRMKWMNRINRKNPAINLGGPTFRWVHLCLNAIKRLPKVIPKIEIPILILQAEKEKIVDNKNLEKLTALFPNARCEVILNAKHEVLFEKDNVRRNVLKSVNHFLN
  protein production: failed

## SKEDTEITIQKIMDAVVDQLLRLGYDKMSYTTLSQQTGVSRTGISHHFPKKTDFTAALDGRIFKMFIEHLEFEKGLDAFSQSWIKALEDSEFLAILRLLFHHIVTSESAHEFAANGIDRLYKMVESQFGSGGDKELEWLIGRSLIQ
  protein production: failed

## MTNTAAPATVSAGWADALLASFGQAGYAKAEPAILQPAEPFLDLSGEDIRKSLYLTTDAGGEELCLRPDLTIPVARDYLASSSAGKPAGFCYLGPVFRQRGGKRSEFLQAGIESFGRKDRAAADAEMLALALGATAAFGVAELDIRTGDVALFTALIDALDLYPVWRRRLIKDFNRKSDLAQDLEQLTLATATPRNEYEGVLAALAGSDRKAALALVTDLMSIAGASNVGGRSVAEIADRFLEQSTLKGGALPRDALDKIKRFLAISGSPGDALLQLRALAADAKLDIVAAIDEFEARIGFMAARGIDLSATRFSTSFGRGVDYYTGFEFELHRKDNGDEPLVAGGRYDGLLSQLGATAPIAAVGFSVWIEAFTDLAHPANSSAGSAT
  protein production: failed
